Test results from PMC5596431 (Cell Death and Differentiation, 2017).

Biological target: BiP (binding immunoglobulin protein), ER-resident chaperone (human (endogenous in H1299), UniProt P11021 19-654)
Assay: proximity ligation

Chain of BiP (binding immunoglobulin protein), ER-resident chaperone (P11021 19-654): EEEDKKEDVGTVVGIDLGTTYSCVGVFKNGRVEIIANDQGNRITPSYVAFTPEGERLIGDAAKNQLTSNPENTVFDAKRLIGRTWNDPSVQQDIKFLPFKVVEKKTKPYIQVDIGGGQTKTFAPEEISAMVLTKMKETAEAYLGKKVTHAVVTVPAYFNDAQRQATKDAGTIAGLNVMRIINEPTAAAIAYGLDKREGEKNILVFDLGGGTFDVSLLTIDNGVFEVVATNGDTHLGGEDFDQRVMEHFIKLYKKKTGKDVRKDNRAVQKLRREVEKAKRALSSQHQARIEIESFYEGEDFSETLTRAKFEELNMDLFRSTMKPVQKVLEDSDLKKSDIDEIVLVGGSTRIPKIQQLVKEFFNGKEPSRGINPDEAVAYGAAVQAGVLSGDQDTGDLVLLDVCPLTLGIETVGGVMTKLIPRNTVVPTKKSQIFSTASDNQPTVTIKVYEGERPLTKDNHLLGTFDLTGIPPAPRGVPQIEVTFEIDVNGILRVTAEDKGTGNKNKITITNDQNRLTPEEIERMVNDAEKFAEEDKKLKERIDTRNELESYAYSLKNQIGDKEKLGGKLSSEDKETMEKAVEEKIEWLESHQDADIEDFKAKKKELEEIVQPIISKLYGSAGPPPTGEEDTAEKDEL

- ratio of PLA BIK/BiP complexes in p53-positive/p53-negative cells, DMSO: 1.3 ratio
- ratio of PLA BIK/BiP complexes in p53-positive/p53-negative cells, thapsigargin: 0.4 ratio
B1: BIK, BH3-only pro-apoptotic member of the BCL-2 family (natural protein, human (endogenous in H1299), UniProt Q13323 1-160, looked up)
chain: MSEVRPLSRDILMETLLYEQLLEPPTMEVLGMTDSEEDLDPMEDFDSLECMEGSDALALRLACIGDEMDVSLRAPRLAQLSEVAMHSLGLAFIYDQTEDIRDVLRSFMDGFTTLKENIMRFWRSPNPGSWVSCEQVLLALLLLLALLLPLLSGGLHLLLK
